For one assay, the target named is centromere B protein (UniProt P07199). Kind of assay: Luminex AtheNA Multi-Lyte ANA Test, 0.15 µg mab per test.
A further assay deals with Histones. The assay is described as above.
The next assay has as its target SS-A/Ro. The description is as above.
The target in the next assay is FMS peptide (T4; HIV-1). Description: SPR, FMS conjugate in DMPC liposomes. For orientation: Surface plasmon resonance follows binding to a sensor surface in real time, without labels.
Chain of FMS peptide (T4; HIV-1) (P03375 656-683): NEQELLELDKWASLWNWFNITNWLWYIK
Another assay addresses Mab 4E10. Description: ELISA; gp140 (19.25-1230 nM) mixed with 10 µg/ml 4E10 MAb, added to wells with 1.35 µg cardiolipin. In general terms: In an ELISA, binding on a coated surface is turned into a signal by an enzyme label.

Broadly, the Kd is the concentration at which binding is half-saturated. For orientation: IC50 means the midpoint of a concentration-inhibition curve. Low readings indicate greater potency in that assay, high ones weaker potency in that assay.

Chain of UniProt P07199 (P07199 2-599): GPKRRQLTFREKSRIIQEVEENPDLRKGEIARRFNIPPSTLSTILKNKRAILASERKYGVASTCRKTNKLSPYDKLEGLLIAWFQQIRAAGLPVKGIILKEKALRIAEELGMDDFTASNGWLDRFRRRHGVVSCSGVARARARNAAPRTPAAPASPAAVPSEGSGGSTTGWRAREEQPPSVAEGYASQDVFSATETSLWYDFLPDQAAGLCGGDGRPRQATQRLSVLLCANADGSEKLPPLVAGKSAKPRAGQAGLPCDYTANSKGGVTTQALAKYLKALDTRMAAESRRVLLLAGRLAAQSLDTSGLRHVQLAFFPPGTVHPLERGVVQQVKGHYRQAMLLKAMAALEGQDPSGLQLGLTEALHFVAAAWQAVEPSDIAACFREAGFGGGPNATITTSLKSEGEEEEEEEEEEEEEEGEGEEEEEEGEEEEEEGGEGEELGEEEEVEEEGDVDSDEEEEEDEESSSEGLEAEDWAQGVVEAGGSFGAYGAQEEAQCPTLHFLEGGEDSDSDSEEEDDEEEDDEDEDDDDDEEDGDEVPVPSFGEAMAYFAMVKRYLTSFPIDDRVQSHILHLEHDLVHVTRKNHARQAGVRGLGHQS

In the case of IgG1b12 (antibody), the relative units based on a standard curve (relative units) in the assay with centromere B protein amounted to 479; with Histones, 185.

With Mab 2F5 (antibody), the relative units based on a standard curve (relative units) in the assay with SS-A/Ro stood at 290; with centromere B protein, 1780; in the assay with Histones it was 1010. In the assay with FMS peptide (T4; HIV-1), this substance returned a Kd of 0.18 nM.

For Mab 4E10 (antibody), the relative units based on a standard curve (relative units) with SS-A/Ro was determined as 221. Also, the Kd with FMS peptide (T4; HIV-1) came out at 27 nM.

As to “soluble HIV-1 Env gp140 oligomers (CON-S)”, the IC50 in the assay with Mab 4E10 is 145 nM.
